Measured values as given in paper PMC3729527, “Redox-sensitive DNA binding by homodimeric Methanosarcina acetivorans MsvR is modulated by cysteine residues”.
Where a chain is given by its changes, count along the chain named. Blank lines part the entries; values can stand above or below the molecule they belong to.

Experiments:
[1] = molecular target: T1, MaMsvR (Methanosarcina acetivorans C2A) (UniProt Q8TQT2); experiment: EMSA; conditions: EMSA at room temperature, 10 nM DNA and 200 nM MsvR (50 nM DNA and 1 uM protein for 50 bp oligos), with or without 5 mM DTT; binding buffer as in cited ref 9 …
T1 sequence: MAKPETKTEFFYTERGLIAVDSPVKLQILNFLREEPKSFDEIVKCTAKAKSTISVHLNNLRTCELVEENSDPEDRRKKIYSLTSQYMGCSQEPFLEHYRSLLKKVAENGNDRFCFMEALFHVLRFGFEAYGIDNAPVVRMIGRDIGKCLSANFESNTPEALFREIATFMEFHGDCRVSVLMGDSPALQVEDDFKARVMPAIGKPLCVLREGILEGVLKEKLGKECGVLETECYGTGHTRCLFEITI

[2] = molecular target: Methanosarcina acetivorans MsvR (methanogen specific V4R domain regulator), N-terminal Strep-tag (Methanosarcina acetivorans C2A); experiment: SEC; Superdex 200 HiLoad 16/600; 20 mM Tris pH 8, 10 mM MgCl2, 200 mM KCl; 0.5 ml/min; non-reduced MaMsvR (0.65 mg loaded) and reduced MaMsvR (0.84 mg, 2 mM beta-ME in the elution buffer); calibrated with ferritin, conalbumin, carbonic anhydrase, ribonuclease A
[3] = molecular target: Methanosarcina acetivorans MsvR (methanogen specific V4R domain regulator), N-terminal Strep-tag (Methanosarcina acetivorans C2A); experiment: SDS-PAGE without boiling, with immunoblot (Strep-tag antibody); 1 pmol protein in Laemmli sample buffer without or with 5 mM DTT, room temperature five minutes, not boiled; reduced and boiled sample as control; oligomers that withstand SDS, likely stabilised by disulfide bonds
[4] = test system: T2, MaMsvR C206A C206A (Methanosarcina acetivorans C2A), ORF:da4acb06; experiment: EMSA; conditions: EMSA at room temperature, 10 nM DNA and 200 nM MsvR (50 nM DNA and 1 uM protein for 50 bp oligos), with or without 5 mM DTT; binding buffer as in cited ref 9 …
T2 sequence: T1 sequence with C206A

[5] = test system: T3, MaMsvR C232A C232A (Methanosarcina acetivorans C2A), ORF:da4acb06; experiment: EMSA; conditions: EMSA at room temperature, 10 nM DNA and 200 nM MsvR (50 nM DNA and 1 uM protein for 50 bp oligos), with or without 5 mM DTT; binding buffer as in cited ref 9 …
T3 sequence: T1 sequence with C232A

[6] = test system: T4, MaMsvR C240A C240A (Methanosarcina acetivorans C2A), ORF:da4acb06; experiment: EMSA; conditions: EMSA at room temperature, 10 nM DNA and 200 nM MsvR (50 nM DNA and 1 uM protein for 50 bp oligos), with or without 5 mM DTT; binding buffer as in cited ref 9 …
T4 sequence: T1 sequence with C240A

MaMsvR [7] = molecular target: T5, MaMsvR (Methanosarcina acetivorans C2A, UniProt Q8TQT2 1-246); experiment: EMSA; 5 mM DTT; 1 uM protein, 50 nM DNA; EMSA at room temperature, 10 nM DNA and 200 nM MsvR (50 nM DNA and 1 uM protein for 50 bp oligos), with or without 5 mM DTT; binding buffer as in cited ref 9; protein stock in 20 mM Tris pH 8, 10 mM MgCl2, 200 mM KCl, glycerol; conditions: protein: recombinant; tags: N-terminal Strep-tag; chain copies: 2; blunt
T5 sequence: T1 sequence

MaMsvR [8] = molecular target: T5, MaMsvR; experiment: EMSA; reducing; EMSA at room temperature, 10 nM DNA and 200 nM MsvR (50 nM DNA and 1 uM protein for 50 bp oligos), with or without 5 mM DTT; binding buffer as in cited ref 9; protein stock in 20 mM Tris pH 8, 10 mM MgCl2, 200 mM KCl, glycerol; conditions: protein: recombinant; tags: N-terminal Strep-tag; chain copies: 2; blunt

Molecule: AAAGTAAGAAATTCTCTCTATATGTATGGGTTTATGATATCTCAGACCTGAAAATATGCGGATAAAATTCGGATAAAACAGGATTTCCTGATTTGGAGGGAAAGTAATGAAGTGTTACGAATGTGCCAGAGAGGGCAAAGATACGGATGCTGTGGGAATTTGTATCGTATGTGGAAGAGGAGTTTGCAAAGAACACCTTATCCATGAGGAAACACCTGCGTGGGAAGGCGACTATCCTAT (double strand) [Ma P3734]
binding [1]: no binding

Molecule: AGATCCCCCAGCGTCTCCAGAACTTGCGGAGTGAATCCCATTTTTTCTCCCATACTCTCCAGTATCTCTTCATGCTCTGTCATTTTTCCAGTCTCCTTACTCCGATAACTACCAGCTGTTGATATTTATATTGGTTATTTATATTTATTATTAATTAATATTTCTCAAATCTGTGTTCAGGCCTTTTACTTCCTCATTCCTGTCCAAAGGCCCTTTATTAAAGTCCGCATCCTTTGTTATGGGCTGCACA (double strand) [Ma P3736]
binding [1]: no binding

Molecule: AGGCTTTACAAAGTAAATAAAGGGGAGAAAAAGGGTTAAAACCTGAATAAGAAGTAAAGAAAACTCCGATATAAGCAAAAGTATTTATAGAATCCGATTACAAAATCAGAGGTTAGAAGGAATTTATATTAACAAAAAGAAGCTTGGAGGATAATATGGCAAAAGTTATACCATTTGCACCAATCGAACGCCTGATAAGGACGGCTGGTGCCCACAGAGTAAGTGAGA (double strand) [Ma PhmaA]
binding [1]: no binding

Molecule: CCGAAAACATTCCTGGCAATCTCCGGGATATTATATATTTCCATACTTTTCCTCCAACTCTCTTCTGAATCATTTACTCTCAAAATAAAATGTACCAAAATACGGTACACAGAAATCTTTAACTGTTCCCCACAAGCTCAAAACAGTATTATGGTGTAGCTATGTTAATTCGATATATTTATTATATTGATTAAATATTTTTGATAAGAACCTCTTTCTATTTTTACCTGTTCGTTCTGTCAGA (double strand) [Ma P3381]
binding [1]: no binding

Molecule: GCAGATCTCGCAGCGGTACTTTTCTCCTTTTCTGGATACAGCCATAGCTACTTCACCTCCTTGCTTCTGAATTTAAATACCTCAAAACTTTCAAGCGGGCTTTCCCCTTCCCTGTAATCCCGAAATTACTCCGGGTTTCACCAACACTCATACATGTTAACCATTCTTTGTATATAATTGTAAGGACTTTTTAAAAAGTAACATAAATTTTTTCCTTCTATTCGGGTATGTCTTA (double strand) [Ma P4664]
binding [1]: no binding

stoichiometry N [2]: 2
stoichiometry N [3]: 2
Molecule: Methanosarcina acetivorans MsvR (methanogen specific V4R domain regulator), N-terminal Strep-tag (natural protein)

Molecule: TCAGCTTTTCTTACGTTTGACCGTTATAGGAATAATTTCGGCCTTCAACTCTGCAATGGCTACACCCAGGGGGTCCAGCCGCCCGTCATCATCAACCAGGACAGGAGCCCCCATTGCTATCTGCAATGCTCTTGCACCTACAATTCGTGCACGCTCGAACCGGGTATACTTTT (double strand) [Ma rpoK]
binding [1]: no binding

Molecule: TTACTTTGCCGTTTCCCCCCATTTTCTTTATATCTTTTTATATCTGTATTATTATATTTCAAACATGATTATTCGTAGTCACGCGAACGTTTTATATATTCAAAACGCAACTTATCTAAAGATATTATGGCAAAACCTGAGACCAAAACTGAATTCTTTTATACCGAAAGAGGGCTCATAGCCGTAGACAGCCCTGTTAAACTCCAGATCCTGAATTTTCTCAGGG (double strand) [Ma PmsvR (PCR)]
binding [1]: binds
binding [4]: binds
binding [5]: binds
binding [6]: binds

B1: Ma PmsvR 50 bp box A mutant (dsDNA)
DNA 1: TATTTCAAACATGATTAGGGGTAGTCACGCGAACGTTTTATATATTCAAA
DNA 2: TTTGAATATATAAAACGTTCGCGTGACTACCCCTAATCATGTTTGAAATA
binding result (MaMsvR [7]): no binding

B2: Ma PmsvR 50 bp box B mutant (dsDNA)
DNA 1: B1 DNA 1 with G18T, G19T, G20C, C30G, A32G, A33G
DNA 2: B1 DNA 2 with T18C, T19C, G21C, C31G, C32A, C33A
binding result (MaMsvR [7]): no binding

B3: Ma PmsvR 1 bp insertion between boxes (dsDNA)
DNA 1: TATTTCAAACATGATTATTCGTAGTTCACGCGAACGTTTTATATATTCAAA
DNA 2: TTTGAATATATAAAACGTTCGCGTGAACTACGAATAATCATGTTTGAAATA
binding result (MaMsvR [8]): binds

B4: Ma PmsvR 1 bp deletion between boxes (dsDNA)
DNA 1: TATTTCAAACATGATTATTCGTAGCACGCGAACGTTTTATATATTCAAA
DNA 2: TTTGAATATATAAAACGTTCGCGTGCTACGAATAATCATGTTTGAAATA
binding result (MaMsvR [8]): binds

B5: Ma PmsvR flanks replaced (dsDNA)
DNA 1: GAGGGAATGAAATCCTCTTCGTAGTCACGCGAAAATGGACAAGTCTGATT
DNA 2: AATCAGACTTGTCCATTTTCGCGTGACTACGAAGAGGATTTCATTCCCTC
binding result (MaMsvR [8]): no binding
